In experiment [1] the target is T1, L1CAM ECD-His6 (777-NC-100, R&D Systems) (UniProt P32004 20-1120).
T1 construct: L1CAM extracellular domain; source: bought: R&D Systems (777-NC-100)
Description: quartz crystal microbalance; AffinixQ, 27 MHz; about 200 femtomoles SLITRK1 ECD-Fc (WT, S330A or A444S) immobilised through anti-human IgG Fc on the gold resonator; ECD-His6 proteins added at several concentrations; 50 mM Tris-HCl pH 7.6, 15 mM NaCl, 140 mM KCl, 0.5 mM MgCl2, 2 mM CaCl2; 25 ± 1 °C; KD = koff/kon. The settings on record: both partners purified.

The target of experiment [2] is T2, human PTPRD ECD-His6 (ACROBiosystems) (human, UniProt P23468 21-1265).
T2 construct: human receptor-type protein tyrosine phosphatase delta (PTPRD), extracellular domain; No catalogue number printed; also called PTPRδ; source: bought: ACROBiosystems
T2 sequence (looked up): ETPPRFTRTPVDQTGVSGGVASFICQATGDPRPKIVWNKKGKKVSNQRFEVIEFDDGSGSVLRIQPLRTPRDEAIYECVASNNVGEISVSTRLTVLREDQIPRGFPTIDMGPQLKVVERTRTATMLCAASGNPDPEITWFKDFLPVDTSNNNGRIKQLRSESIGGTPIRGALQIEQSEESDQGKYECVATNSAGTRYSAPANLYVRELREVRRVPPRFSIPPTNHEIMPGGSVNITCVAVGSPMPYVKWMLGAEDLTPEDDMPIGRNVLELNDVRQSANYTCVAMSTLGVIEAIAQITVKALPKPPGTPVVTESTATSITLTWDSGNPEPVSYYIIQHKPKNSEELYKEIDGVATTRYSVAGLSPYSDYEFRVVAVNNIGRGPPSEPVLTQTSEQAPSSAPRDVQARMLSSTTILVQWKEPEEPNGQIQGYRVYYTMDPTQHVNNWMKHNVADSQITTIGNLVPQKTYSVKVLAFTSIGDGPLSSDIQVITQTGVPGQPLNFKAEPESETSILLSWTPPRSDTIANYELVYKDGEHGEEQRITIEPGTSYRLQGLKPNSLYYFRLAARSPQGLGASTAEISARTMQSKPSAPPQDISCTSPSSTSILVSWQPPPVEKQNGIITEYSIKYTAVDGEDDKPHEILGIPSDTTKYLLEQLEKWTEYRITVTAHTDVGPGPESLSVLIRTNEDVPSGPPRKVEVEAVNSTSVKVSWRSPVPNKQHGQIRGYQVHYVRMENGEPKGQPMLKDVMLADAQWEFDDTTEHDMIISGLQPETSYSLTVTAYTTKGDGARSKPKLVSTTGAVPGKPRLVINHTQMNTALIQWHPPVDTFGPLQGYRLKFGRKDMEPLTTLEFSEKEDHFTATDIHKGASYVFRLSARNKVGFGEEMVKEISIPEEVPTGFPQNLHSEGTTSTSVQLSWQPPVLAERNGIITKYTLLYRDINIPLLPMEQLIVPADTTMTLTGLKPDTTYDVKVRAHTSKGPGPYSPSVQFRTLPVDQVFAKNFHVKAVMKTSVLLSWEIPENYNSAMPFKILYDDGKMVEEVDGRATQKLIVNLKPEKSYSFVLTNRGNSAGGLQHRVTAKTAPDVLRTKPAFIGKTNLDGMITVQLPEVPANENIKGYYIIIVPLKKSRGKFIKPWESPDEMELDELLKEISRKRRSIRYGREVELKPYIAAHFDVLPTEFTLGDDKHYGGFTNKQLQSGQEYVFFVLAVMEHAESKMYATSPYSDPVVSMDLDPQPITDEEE
The experiment is described as above. The settings on record: both partners purified.

For orientation: Kd means the free concentration of one partner at which half of the binding sites on the other are occupied at equilibrium, for simple one-to-one binding. A lower Kd goes with higher affinity.

T1 sequence (P32004 20-1120): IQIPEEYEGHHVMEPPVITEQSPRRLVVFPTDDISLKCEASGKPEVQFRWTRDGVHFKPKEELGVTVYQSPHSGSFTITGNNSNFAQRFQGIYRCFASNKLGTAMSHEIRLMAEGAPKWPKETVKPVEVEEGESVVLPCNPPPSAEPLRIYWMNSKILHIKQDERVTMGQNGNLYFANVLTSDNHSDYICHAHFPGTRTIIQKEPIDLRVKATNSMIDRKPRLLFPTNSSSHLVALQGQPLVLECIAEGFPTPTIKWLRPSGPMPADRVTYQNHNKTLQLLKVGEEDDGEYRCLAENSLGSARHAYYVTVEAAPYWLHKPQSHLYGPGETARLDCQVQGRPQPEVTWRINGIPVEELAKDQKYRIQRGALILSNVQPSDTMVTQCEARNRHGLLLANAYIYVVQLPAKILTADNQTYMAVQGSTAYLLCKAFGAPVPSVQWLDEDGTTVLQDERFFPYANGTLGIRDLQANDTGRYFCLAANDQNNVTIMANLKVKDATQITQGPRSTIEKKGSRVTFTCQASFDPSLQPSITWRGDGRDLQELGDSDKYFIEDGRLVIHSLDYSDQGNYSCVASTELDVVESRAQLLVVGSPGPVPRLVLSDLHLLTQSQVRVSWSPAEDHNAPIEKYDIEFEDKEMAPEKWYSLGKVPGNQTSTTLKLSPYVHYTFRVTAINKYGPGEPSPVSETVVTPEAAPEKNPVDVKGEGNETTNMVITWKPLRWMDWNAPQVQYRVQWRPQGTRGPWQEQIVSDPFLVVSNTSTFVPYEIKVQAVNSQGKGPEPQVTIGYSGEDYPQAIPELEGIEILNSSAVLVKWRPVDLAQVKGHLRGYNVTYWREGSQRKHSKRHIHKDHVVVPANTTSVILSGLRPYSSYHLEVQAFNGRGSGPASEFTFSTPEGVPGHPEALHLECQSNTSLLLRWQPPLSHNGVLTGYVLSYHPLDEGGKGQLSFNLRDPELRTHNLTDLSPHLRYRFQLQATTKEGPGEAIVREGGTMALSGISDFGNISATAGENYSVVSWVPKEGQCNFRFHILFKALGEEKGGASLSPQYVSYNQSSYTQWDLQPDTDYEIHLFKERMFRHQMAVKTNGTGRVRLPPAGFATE

B1: SLITRK1 ECD-immunoglobulin Fc domain-fusion protein (SLITRK1-WT-Fc) (Fc fusion, human, UniProt Q96PX8 18-616, looked up)
chain: NVTGDVCKEKICSCNEIEGDLHVDCEKKGFTSLQRFTAPTSQFYHLFLHGNSLTRLFPNEFANFYNAVSLHMENNGLHEIVPGAFLGLQLVKRLHINNNKIKSFRKQTFLGLDDLEYLQADFNLLRDIDPGAFQDLNKLEVLILNDNLISTLPANVFQYVPITHLDLRGNRLKTLPYEEVLEQIPGIAEILLEDNPWDCTCDLLSLKEWLENIPKNALIGRVVCEAPTRLQGKDLNETTEQDLCPLKNRVDSSLPAPPAQEETFAPGPLPTPFKTNGQEDHATPGSAPNGGTKIPGNWQIKIRPTAAIATGSSRNKPLANSLPCPGGCSCDHIPGSGLKMNCNNRNVSSLADLKPKLSNVQELFLRDNKIHSIRKSHFVDYKNLILLDLGNNNIATVENNTFKNLLDLRWLYMDSNYLDTLSREKFAGLQNLEYLNVEYNAIQLILPGTFNAMPKLRILILNNNLLRSLPVDVFAGVSLSKLSLHNNYFMYLPVAGVLDQLTSIIQIDLHGNPWECSCTIVPFKQWAERLGSEVLMSDLKCETPVNFFRKDFMLLSNDEICPQLYARISPTLTSHSKNSTGLAETGTHSNSYLDTSRVS
notes: signal peptide in the construct; human SLITRK1 extracellular domain, amino acid number 1-616 in NP_443142; also called SLITRK1 ECD-Fc; SLITRK1 ECD-Fc fusion protein
B1: the Kd was found to be 5.47 nM in experiment [1] and 152 nM in experiment [2].

For the origin of these results see publication PMC9463131, “SLITRK1-mediated noradrenergic projection suppression in the neonatal prefrontal cortex” (Communications Biology, 2022).
